Substrate in this data set: O=C(O)[C@@H](CO)OP(=O)(O)O
The data set is described as follows: purified protein. It is filed as biochemical, Chloroflexus aurantiacus. The following applies: 25 °C, pH 6.5, 50 mM Bis-Tris propane, 5 mM MgCl2, crystal structure with 2-PGA in active site, open conformation.

Here are results for 1 protein from paper PMC4450660, “Biochemical and Structural Characterization of Enolase from Chloroflexus aurantiacus: Evidence for a Thermophilic Origin” (Frontiers in Bioengineering and Biotechnology, 2015).

B1: EnoCa (enolase-1 from Chloroflexus aurantiacus) (Chloroflexus aurantiacus J-10-fl) (protein)
chain: MSTLIEAIVAREVLDSRGNPTIEVDVRLESGDVGRAIVPSGASTGAHEALELRDGDKSRYNGKGVLKAVQAVNEDIAEALIGFDAADQIALDQELIALDGTPNKSKLGANAILGVSLAAAKAAAAAFGLPLYRYLGGVYAHVLPVPMMNIMNGGQHATNSTDFQEFMIMPVGAESFREGLRWGAEIYHMLKKVIHDRGFSTTVGDEGGFAPSLPTNDAPLQLIMEAIEKAGYRPGEQIVIALDPATTEIFEDGKYHLKREGRSLSSAEMVDYWVDLVNRYPIISLEDGLAEDDWEGWALLRAKLGDRVQLVGDDFLVTNVQRLQRAIEAKAANSILIKLNQIGSLTETLSAIQLAQRSGWTAVVSHRSGESEDVTIADLVVATNAGQIKTGAPARTDRIAKYNQLLRIEEELGSAARYAGRSAFKV
notes: native protein purified from C. aurantiacus cells, untagged; homodimer, subunit ~46 kDa, total ~92-96 kDa
By Km is commonly meant the substrate concentration at which the rate is half of its maximum. Consider B1, for which the Michaelis constant (Km) stood at 160 ± 10 µM.
